What was measured:
[1] = target: T1, GraR (Staphylococcus aureus Mu50) (UniProt Q932F1); experiment: DNase I footprinting; details: 10 ng 32P-labelled promoter DNA, buffer, salt, pH and temperature not given (as described previously, ref 17)
T1 sequence: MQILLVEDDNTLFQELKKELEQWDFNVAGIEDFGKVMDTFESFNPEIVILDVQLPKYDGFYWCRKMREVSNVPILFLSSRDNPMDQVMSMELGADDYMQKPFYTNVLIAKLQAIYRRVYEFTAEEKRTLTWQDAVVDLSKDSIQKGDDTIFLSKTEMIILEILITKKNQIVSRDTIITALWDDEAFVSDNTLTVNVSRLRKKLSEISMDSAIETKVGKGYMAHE

[2] = system: GraR C (C-terminal DNA-binding domain) (Staphylococcus aureus Mu50); experiment: DNase I footprinting; details: 10 ng 32P-labelled promoter DNA, buffer, salt, pH and temperature not given (as described previously, ref 17)
[3] = system: GraR (Staphylococcus aureus Mu50); experiment: DNase I footprinting; details: 10 ng 32P-labelled promoter DNA, buffer, salt, pH and temperature not given (as described previously, ref 17)
[4] = target: T2, GST-BceS, cytoplasmic region of histidine kinase BceS (62-334) fused to GST (B. subtilis strain 168, UniProt O35044 62-334); experiment: pull-down; GST-fused bait immobilised on glutathione-sepharose resin in 1 x PBS; prey added at bait:prey ratios of about 1:1 to 1:2, 30 min at room temperature; five to seven washes; elution with 10 mM reduced glutathione in 50 mM Tris pH 8.0; SDS-PAGE; details: both partners purified
T2 construct: Histidine kinase BceS (334 amino acids), B. subtilis strain 168, cytoplasmic region, residues 62-334; Cloned in pGEX-4T-1; source: E. coli BL21(DE3), purified (glutathione-sepharose); not shown: GST, N-terminal, kept
T2 sequence: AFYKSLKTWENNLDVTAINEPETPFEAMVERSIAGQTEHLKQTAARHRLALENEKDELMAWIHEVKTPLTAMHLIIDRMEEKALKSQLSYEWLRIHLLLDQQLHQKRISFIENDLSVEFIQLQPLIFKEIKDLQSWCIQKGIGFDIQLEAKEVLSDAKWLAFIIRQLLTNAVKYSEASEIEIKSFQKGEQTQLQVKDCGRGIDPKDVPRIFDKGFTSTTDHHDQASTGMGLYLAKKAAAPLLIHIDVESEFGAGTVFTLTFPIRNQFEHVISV

[5] = target: the molecule itself; experiment: SDS-PAGE in the presence and absence of DTT; purified GraX on SDS-PAGE with and without dithiothreitol; data not shown

GGATCCTTTAGGTTTCATCTAAAATACTCCTTTAAACTGTAACCAAAAAACATATTACTCCACCTTTTAGTTACATATATATTATAATAGTAGCAAATGTTTTAAAATTTCAAAATACTGGAGGCTTTTTATGGCCCATATTATACGTAGAGTTAGTATCAAAGATGTAGAAAATTTCATTTCAATGAATTCCG (double strand) [graSR promoter]
binding [1]: no binding

PvraFG promoter
Kd [2]: 2.4 µM
Kd [3]: 0.8 µM

B1: BceR, response regulator of Bacillus subtilis (natural protein)
chain: MFKLLLIEDDESLFHEIKDRLTGWSYDVYGIQDFSQVLQEFAAVNPDCVIIDVQLPKFDGFHWCRLIRSRSNVPILFLSSRDHPADMVMSMQLGADDFIQKPFHFDVLIAKIQAMFRRVHHYNTEPSTIKTWCGAAVDAEQNLVSNDKGSVELTKNEMFILKQLIEQKNKIVSREELIRSLWNDERFVSDNTLTVNVNRLRKKLDALQLGAYIETKVGQGYIAKEEDKFYD
notes: Response regulator BceR, B. subtilis strain 168; the bceR gene amplified with primers from the start to the stop codon; no extra amino acids on either terminus; Cloned in pET26b(+), untagged; source: E. coli BL21(DE3), purified (DEAE-Sepharose, heparin-sepharose), up to 90% purity
binding result [4]: binds

B2: GraX, auxiliary protein (tagless) (natural protein)
chain: MKPKVLLAGGTGYIGKYLSEVIENDAELFAISKYPDNKKTDDVEMTWIQCDIFHYEQVVAAMNQIDIAVFFIDPTKNSAKITQSSARDLTLIAADNFGRAAAINQVKKVIYIPGSRYDNETIERLGAYGTPVETTNLVFKRSLVNVELQVSKYDDVRSTMKVVLPKGWTLKNVVNHFIAWMGYTKGTFVKTEKSHDQFKIYIKNKVRPLAVFKIEETADGIITLILLSGSLVKKYTVNQGKLEFRLIKESAVVYIHLYDYIPRLFWPIYYFIQAPMQKMMIHGFEVDCRIKDFQSRLKSGENMKYTK
notes: Auxiliary protein GraX, S. aureus strain Mu50, full length graX gene; Cloned in pET26b between NdeI and HindIII; Dimers seen by SDS-PAGE without DTT; also called untagged GraX; source: E. coli BL21(DE3), purified (SP-Sepharose cation exchange), to 90%
stoichiometry N [5]: 2
